We go through seven molecules from patent US12679878B2, “CRF2 receptor agonists and their use in therapy” (SANOFI, priority 2020, dated 2026).

Starred links: 1 amine or outer side, 2 acyl side, 3 side chain; linkers in the order of their positions; H or OH if unused. Non-standard residues stand in square brackets, D forms with d. Groups on a side chain read outwards from the residue. No end group written: not given here. *: point of attachment. γGlu = O=C(O)[C@H](CCC(=O)[*:2])N[*:1]; Palmitoyl = CCCCCCCCCCCCCCCC(=O)* Where only a bound is given, the exact number is not on record here.

The target of the experiment is T1, anti-target CRF1R receptor (UniProt P34998 24-415, limits assumed).
T1 sequence (looked up): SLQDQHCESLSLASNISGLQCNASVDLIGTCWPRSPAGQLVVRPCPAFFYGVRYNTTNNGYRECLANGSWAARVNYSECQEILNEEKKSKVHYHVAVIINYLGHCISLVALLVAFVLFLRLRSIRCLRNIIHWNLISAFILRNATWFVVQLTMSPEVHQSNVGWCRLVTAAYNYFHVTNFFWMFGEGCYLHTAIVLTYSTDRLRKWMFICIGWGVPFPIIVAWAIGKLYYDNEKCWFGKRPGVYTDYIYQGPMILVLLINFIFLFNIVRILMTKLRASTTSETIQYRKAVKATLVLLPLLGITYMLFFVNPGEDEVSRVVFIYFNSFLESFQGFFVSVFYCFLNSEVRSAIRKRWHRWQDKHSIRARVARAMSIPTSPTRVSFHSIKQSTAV
Kind of experiment: cell-based or functional assay.

B1: peptide of SEQ ID NO: 9 (peptide)
peptide: FTLSLDVPTKIK([γGlu-Palmitoyl])QKLLKQEKQKKQRQKAKTAKQILEQV-NH2
modifications: N-terminus assumed
SMILES: CCCCCCCCCCCCCCCC(=O)N[C@@H](CCC(=O)NCCCC[C@H](NC(=O)[C@@H](NC(=O)[C@H](CCCCN)NC(=O)[C@@H](NC(=O)[C@@H]1CCCN1C(=O)[C@@H](NC(=O)[C@H](CC(=O)O)NC(=O)[C@H](CC(C)C)NC(=O)[C@H](CO)NC(=O)[C@H](CC(C)C)NC(=O)[C@@H](NC(=O)[C@@H](N)Cc1ccccc1)[C@@H](C)O)C(C)C)[C@@H](C)O)[C@@H](C)CC)C(=O)N[C@@H](CCC(N)=O)C(=O)N[C@@H](CCCCN)C(=O)N[C@@H](CC(C)C)C(=O)N[C@@H](CC(C)C)C(=O)N[C@@H](CCCCN)C(=O)N[C@@H](CCC(N)=O)C(=O)N[C@@H](CCC(=O)O)C(=O)N[C@@H](CCCCN)C(=O)N[C@@H](CCC(N)=O)C(=O)N[C@@H](CCCCN)C(=O)N[C@@H](CCCCN)C(=O)N[C@@H](CCC(N)=O)C(=O)N[C@@H](CCCNC(=N)N)C(=O)N[C@@H](CCC(N)=O)C(=O)N[C@@H](CCCCN)C(=O)N[C@@H](C)C(=O)N[C@@H](CCCCN)C(=O)N[C@H](C(=O)N[C@@H](C)C(=O)N[C@@H](CCCCN)C(=O)N[C@@H](CCC(N)=O)C(=O)N[C@H](C(=O)N[C@@H](CC(C)C)C(=O)N[C@@H](CCC(=O)O)C(=O)N[C@@H](CCC(N)=O)C(=O)N[C@H](C(N)=O)C(C)C)[C@@H](C)CC)[C@@H](C)O)C(=O)O
On to B1, for which the “EC50[nM] 0% HSA (cAMP, CRF1R-overexpression CHO cells)” value (“EC50[nM] 0% HSA” below) was above 1000 nM and the “Emax (%) (cAMP, CRF1R-overexpression CHO cells)” value (“Emax (%)” for short) is 14.9%.

B2: peptide of SEQ ID NO: 12 (peptide)
peptide: FTLSLDVPTKIK([γGlu-Palmitoyl])QKLLKQEKQRKQKQQAKTNAKILARV-NH2
modifications: N-terminus assumed
SMILES: CCCCCCCCCCCCCCCC(=O)N[C@@H](CCC(=O)NCCCC[C@H](NC(=O)[C@@H](NC(=O)[C@H](CCCCN)NC(=O)[C@@H](NC(=O)[C@@H]1CCCN1C(=O)[C@@H](NC(=O)[C@H](CC(=O)O)NC(=O)[C@H](CC(C)C)NC(=O)[C@H](CO)NC(=O)[C@H](CC(C)C)NC(=O)[C@@H](NC(=O)[C@@H](N)Cc1ccccc1)[C@@H](C)O)C(C)C)[C@@H](C)O)[C@@H](C)CC)C(=O)N[C@@H](CCC(N)=O)C(=O)N[C@@H](CCCCN)C(=O)N[C@@H](CC(C)C)C(=O)N[C@@H](CC(C)C)C(=O)N[C@@H](CCCCN)C(=O)N[C@@H](CCC(N)=O)C(=O)N[C@@H](CCC(=O)O)C(=O)N[C@@H](CCCCN)C(=O)N[C@@H](CCC(N)=O)C(=O)N[C@@H](CCCNC(=N)N)C(=O)N[C@@H](CCCCN)C(=O)N[C@@H](CCC(N)=O)C(=O)N[C@@H](CCCCN)C(=O)N[C@@H](CCC(N)=O)C(=O)N[C@@H](CCC(N)=O)C(=O)N[C@@H](C)C(=O)N[C@@H](CCCCN)C(=O)N[C@H](C(=O)N[C@@H](CC(N)=O)C(=O)N[C@@H](C)C(=O)N[C@@H](CCCCN)C(=O)N[C@H](C(=O)N[C@@H](CC(C)C)C(=O)N[C@@H](C)C(=O)N[C@@H](CCCNC(=N)N)C(=O)N[C@H](C(N)=O)C(C)C)[C@@H](C)CC)[C@@H](C)O)C(=O)O
As for B2, the “EC50[nM] 0% HSA” value was above 1000 nM and the “Emax (%)” value is 41.8%.

B3: peptide of SEQ ID NO: 10 (peptide)
peptide: FTLSLDVPTKIK([γGlu-Palmitoyl])QKLLKQEKQKKQRQKAKTNKQILEQV-NH2
modifications: N-terminus assumed
SMILES: CCCCCCCCCCCCCCCC(=O)N[C@@H](CCC(=O)NCCCC[C@H](NC(=O)[C@@H](NC(=O)[C@H](CCCCN)NC(=O)[C@@H](NC(=O)[C@@H]1CCCN1C(=O)[C@@H](NC(=O)[C@H](CC(=O)O)NC(=O)[C@H](CC(C)C)NC(=O)[C@H](CO)NC(=O)[C@H](CC(C)C)NC(=O)[C@@H](NC(=O)[C@@H](N)Cc1ccccc1)[C@@H](C)O)C(C)C)[C@@H](C)O)[C@@H](C)CC)C(=O)N[C@@H](CCC(N)=O)C(=O)N[C@@H](CCCCN)C(=O)N[C@@H](CC(C)C)C(=O)N[C@@H](CC(C)C)C(=O)N[C@@H](CCCCN)C(=O)N[C@@H](CCC(N)=O)C(=O)N[C@@H](CCC(=O)O)C(=O)N[C@@H](CCCCN)C(=O)N[C@@H](CCC(N)=O)C(=O)N[C@@H](CCCCN)C(=O)N[C@@H](CCCCN)C(=O)N[C@@H](CCC(N)=O)C(=O)N[C@@H](CCCNC(=N)N)C(=O)N[C@@H](CCC(N)=O)C(=O)N[C@@H](CCCCN)C(=O)N[C@@H](C)C(=O)N[C@@H](CCCCN)C(=O)N[C@H](C(=O)N[C@@H](CC(N)=O)C(=O)N[C@@H](CCCCN)C(=O)N[C@@H](CCC(N)=O)C(=O)N[C@H](C(=O)N[C@@H](CC(C)C)C(=O)N[C@@H](CCC(=O)O)C(=O)N[C@@H](CCC(N)=O)C(=O)N[C@H](C(N)=O)C(C)C)[C@@H](C)CC)[C@@H](C)O)C(=O)O
For the molecule B3, the “EC50[nM] 0% HSA” value was above 1000 nM and the “Emax (%)” value was determined as 10.2%.

B4: peptide of SEQ ID NO: 5 (peptide)
peptide: IVLSLDVPIGLK([γGlu-Palmitoyl])QKLLKQQRQRKERQQAETNARILARV-NH2
modifications: N-terminus assumed
SMILES: CCCCCCCCCCCCCCCC(=O)N[C@@H](CCC(=O)NCCCC[C@H](NC(=O)[C@H](CC(C)C)NC(=O)CNC(=O)[C@@H](NC(=O)[C@@H]1CCCN1C(=O)[C@@H](NC(=O)[C@H](CC(=O)O)NC(=O)[C@H](CC(C)C)NC(=O)[C@H](CO)NC(=O)[C@H](CC(C)C)NC(=O)[C@@H](NC(=O)[C@@H](N)[C@@H](C)CC)C(C)C)C(C)C)[C@@H](C)CC)C(=O)N[C@@H](CCC(N)=O)C(=O)N[C@@H](CCCCN)C(=O)N[C@@H](CC(C)C)C(=O)N[C@@H](CC(C)C)C(=O)N[C@@H](CCCCN)C(=O)N[C@@H](CCC(N)=O)C(=O)N[C@@H](CCC(N)=O)C(=O)N[C@@H](CCCNC(=N)N)C(=O)N[C@@H](CCC(N)=O)C(=O)N[C@@H](CCCNC(=N)N)C(=O)N[C@@H](CCCCN)C(=O)N[C@@H](CCC(=O)O)C(=O)N[C@@H](CCCNC(=N)N)C(=O)N[C@@H](CCC(N)=O)C(=O)N[C@@H](CCC(N)=O)C(=O)N[C@@H](C)C(=O)N[C@@H](CCC(=O)O)C(=O)N[C@H](C(=O)N[C@@H](CC(N)=O)C(=O)N[C@@H](C)C(=O)N[C@@H](CCCNC(=N)N)C(=O)N[C@H](C(=O)N[C@@H](CC(C)C)C(=O)N[C@@H](C)C(=O)N[C@@H](CCCNC(=N)N)C(=O)N[C@H](C(N)=O)C(C)C)[C@@H](C)CC)[C@@H](C)O)C(=O)O
For B4, the “EC50[nM] 0% HSA” value was above 1000 nM and the “Emax (%)” value turned out to be 37.4%.

B5: peptide of SEQ ID NO: 6 (peptide)
peptide: IVLSLDVPIGLK([γGlu-Palmitoyl])QKLLKQQRQRKERQQAEKNARILARV-NH2
modifications: N-terminus assumed
SMILES: CCCCCCCCCCCCCCCC(=O)N[C@@H](CCC(=O)NCCCC[C@H](NC(=O)[C@H](CC(C)C)NC(=O)CNC(=O)[C@@H](NC(=O)[C@@H]1CCCN1C(=O)[C@@H](NC(=O)[C@H](CC(=O)O)NC(=O)[C@H](CC(C)C)NC(=O)[C@H](CO)NC(=O)[C@H](CC(C)C)NC(=O)[C@@H](NC(=O)[C@@H](N)[C@@H](C)CC)C(C)C)C(C)C)[C@@H](C)CC)C(=O)N[C@@H](CCC(N)=O)C(=O)N[C@@H](CCCCN)C(=O)N[C@@H](CC(C)C)C(=O)N[C@@H](CC(C)C)C(=O)N[C@@H](CCCCN)C(=O)N[C@@H](CCC(N)=O)C(=O)N[C@@H](CCC(N)=O)C(=O)N[C@@H](CCCNC(=N)N)C(=O)N[C@@H](CCC(N)=O)C(=O)N[C@@H](CCCNC(=N)N)C(=O)N[C@@H](CCCCN)C(=O)N[C@@H](CCC(=O)O)C(=O)N[C@@H](CCCNC(=N)N)C(=O)N[C@@H](CCC(N)=O)C(=O)N[C@@H](CCC(N)=O)C(=O)N[C@@H](C)C(=O)N[C@@H](CCC(=O)O)C(=O)N[C@@H](CCCCN)C(=O)N[C@@H](CC(N)=O)C(=O)N[C@@H](C)C(=O)N[C@@H](CCCNC(=N)N)C(=O)N[C@H](C(=O)N[C@@H](CC(C)C)C(=O)N[C@@H](C)C(=O)N[C@@H](CCCNC(=N)N)C(=O)N[C@H](C(N)=O)C(C)C)[C@@H](C)CC)C(=O)O
On to B5, for which the “EC50[nM] 0% HSA” value was 830 nM and the “Emax (%)” value is 47.2%.
For IVLSLD[dV]PTKLK([γGlu-Palmitoyl])QKLLKQERQRKEREQAEKNARILARV-NH2 (not fully specified; printed as IVLSLDvPTKLK*QKLLKQERQRKEREQAEKNARILARV-NH2) [peptide of SEQ ID NO: 7] the same measures were 588 nM and 58.6%.

B6: peptide of SEQ ID NO: 4 (peptide)
peptide: IVLSLDVPIGLK([γGlu-Palmitoyl])QKLLKQEKQEKEKQQAETNAKILAQV-NH2
modifications: N-terminus assumed
SMILES: CCCCCCCCCCCCCCCC(=O)N[C@@H](CCC(=O)NCCCC[C@H](NC(=O)[C@H](CC(C)C)NC(=O)CNC(=O)[C@@H](NC(=O)[C@@H]1CCCN1C(=O)[C@@H](NC(=O)[C@H](CC(=O)O)NC(=O)[C@H](CC(C)C)NC(=O)[C@H](CO)NC(=O)[C@H](CC(C)C)NC(=O)[C@@H](NC(=O)[C@@H](N)[C@@H](C)CC)C(C)C)C(C)C)[C@@H](C)CC)C(=O)N[C@@H](CCC(N)=O)C(=O)N[C@@H](CCCCN)C(=O)N[C@@H](CC(C)C)C(=O)N[C@@H](CC(C)C)C(=O)N[C@@H](CCCCN)C(=O)N[C@@H](CCC(N)=O)C(=O)N[C@@H](CCC(=O)O)C(=O)N[C@@H](CCCCN)C(=O)N[C@@H](CCC(N)=O)C(=O)N[C@@H](CCC(=O)O)C(=O)N[C@@H](CCCCN)C(=O)N[C@@H](CCC(=O)O)C(=O)N[C@@H](CCCCN)C(=O)N[C@@H](CCC(N)=O)C(=O)N[C@@H](CCC(N)=O)C(=O)N[C@@H](C)C(=O)N[C@@H](CCC(=O)O)C(=O)N[C@H](C(=O)N[C@@H](CC(N)=O)C(=O)N[C@@H](C)C(=O)N[C@@H](CCCCN)C(=O)N[C@H](C(=O)N[C@@H](CC(C)C)C(=O)N[C@@H](C)C(=O)N[C@@H](CCC(N)=O)C(=O)N[C@H](C(N)=O)C(C)C)[C@@H](C)CC)[C@@H](C)O)C(=O)O
In the case of B6, the “EC50[nM] 0% HSA” value was above 1000 nM and the “Emax (%)” value stood at 17.4%.
